The results in this text go back to patent publication US20260053904A1 (BIOATLA, published 2026).

The target of experiment [1] is T1, recombinant human EpCAM extracellular domain (human, UniProt P16422 24-265).
T1 construct: extracellular domain; Plate-coated antigen of the ELISAs; also called human EpCAM ECD; recombinant EpCAM antigen
T1 sequence (looked up): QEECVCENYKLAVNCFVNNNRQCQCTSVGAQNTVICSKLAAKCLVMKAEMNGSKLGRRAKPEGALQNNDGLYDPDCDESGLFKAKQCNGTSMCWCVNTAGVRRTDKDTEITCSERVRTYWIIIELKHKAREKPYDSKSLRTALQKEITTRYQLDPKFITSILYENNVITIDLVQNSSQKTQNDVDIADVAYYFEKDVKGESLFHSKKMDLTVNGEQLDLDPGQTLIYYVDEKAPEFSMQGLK
The experiment is described as follows: ELISA on human EpCAM, pH range 5.0 to 7.4. A general note: An ELISA detects its analyte on a solid surface through an enzyme-linked reagent.

Experiment [2] has as its target T2, human EpCAM expressed on cells (CHO, Colo205, 293) (human, UniProt P16422 24-314).
T2 construct: whole, on cells; also called CHO cells expressing human EpCAM; Colo205 cells expressing human EpCAM
T2 sequence (looked up): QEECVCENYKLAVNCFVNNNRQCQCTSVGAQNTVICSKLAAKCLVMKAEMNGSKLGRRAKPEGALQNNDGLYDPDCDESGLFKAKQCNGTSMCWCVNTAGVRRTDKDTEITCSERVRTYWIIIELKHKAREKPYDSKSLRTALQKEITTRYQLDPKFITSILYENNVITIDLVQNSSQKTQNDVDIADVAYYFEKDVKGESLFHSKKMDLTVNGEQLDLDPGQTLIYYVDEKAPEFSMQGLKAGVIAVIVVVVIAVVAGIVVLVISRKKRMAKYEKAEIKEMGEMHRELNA
The experiment in a line: FACS on Colo205 cells, antibody at 1 ug/mL, pH 6.0 and pH 7.4. The procedure:
The binding activity of these anti-EpCAM antibodies to EpCAM expressing Colo205 cells were measured by fluorescence activated cell sorting (FACS) at two different pH values of 6.0 and 7.4. Different dosages of the antibodies of 10 μg/mL, 1 μg/mL, 0.1 μg/mL and 0.01 μg/mL were used.

Experiment [3] deals with T2, human EpCAM expressed on cells (CHO, …). The experiment in a line: FACS on Colo205 cells expressing human EpCAM, pH 6.0. The procedure: (§1) Binding activities of the humanized conditionally active anti-EpCAM antibodies to Colo205 cells expressing human EpCAM were measured by FACS at pH 6.0 and pH 7.4. […] The EC50 values for binding to the Colo205 cells expressing human EpCAM by the humanized conditionally active anti-EpCAM antibodies are summarized in Table 9.

In experiment [4] the target is T1, recombinant human EpCAM extracellular …. The experiment is described as follows: ELISA, human EpCAM, pH 6.0. The procedure:
(§2) The binding activities of the humanized conditionally active anti-EpCAM antibodies to human EpCAM were measured by ELISA, using the template antibody BAP-1-5-01-06, as a control. The EC50 values of the humanized conditionally active anti-EpCAM antibodies for binding to human EpCAM at pH 6.0 and pH 7.4 are summarized in Table 5.
(§3) The ELISA assay was performed using the following protocol: [0388] 1) Coat ELISA plates with 100 μL of 0.5 μg/mL (06_20_17 and 06_28_17 Experiments) or 1 μg/mL (07_06_17 and 07_11_17 Experiments) recombinant EpCAM antigen in carbonate-bicarbonate coating buffer [0389] 2) Cover plates with sealing film and incubate overnight at 4° C. [0390] 3) Decant plates and tap out residual liquid on a stack of paper towels [0391] […] 5) Add 200 μL of various pH incubation buffers to the wells according to the sample map.

Experiment [5] has as its target T2, human EpCAM expressed on cells (CHO, …). The experiment is described as follows: FACS on 293 cells expressing human EpCAM, pH 6.0. The procedure:
(§4) A similar FACS analysis was also carried out using 293 cells expressing human EpCAM. […] The EC50 values for binding to the 293 cells expressing human EpCAM by the humanized conditionally active anti-EpCAM antibodies are summarized in Table 10.

Experiment [6] shares this target. The experiment is described as follows: FACS on 293 cells expressing human EpCAM, pH 7.4. Here is the method:
as §4

The target of experiment [7] is T3, cyno EpCAM expressed on 293 cells (cynomolgus monkey).
T3 construct: whole, on cells; also called 293 cells expressing cyno EpCAM
The experiment is described as follows: FACS on 293 cells expressing cyno EpCAM, pH 6.0. Here is the method:
(§5) A similar FACS analysis was also carried out using 293 cells expressing cyno EpCAM. […] The EC50 values for binding to the 293 cells expressing cyno EpCAM by the humanized conditionally active anti-EpCAM antibodies are summarized in Table 11.

The target in experiment [8] is T2, human EpCAM expressed on cells (CHO, …). The experiment in a line: FACS on Colo205 cells expressing human EpCAM, pH 7.4. The procedure: as §1
The target in experiment [9] is T1, recombinant human EpCAM extracellular …. The experiment is described as follows: ELISA, human EpCAM, pH 7.4. Here is the method:
as §2, §3

The target is the same in experiment [10]. The experiment is described as follows: direct binding ELISA, human EpCAM, pH 7.4 (table prints IC50, the text paragraph 376 says EC50).
Experiment [11] deals with T4, cyno EpCAM (recombinant, ELISA antigen) (cynomolgus monkey).
T4 construct: extracellular domain; also called cynomolgus EpCAM extracellular domain
The experiment is described as follows: ELISA, cyno EpCAM, pH 6.0. Here is the method: (§6) The binding activities of the humanized conditionally active anti-EpCAM antibodies to cyno EpCAM were similarly measured. The EC50 for binding to the cyno EpCAM at pH 6.0 and pH 7.4 for the humanized conditionally active anti-EpCAM antibodies are summarized in Table 7.
as §3

Experiment [12] has as its target T4, cyno EpCAM (recombinant, ELISA antigen). The experiment in a line: direct binding ELISA, cyno EpCAM; ratio of the printed IC50 at pH 7.4 to pH 6.0.
The target is the same in experiment [13]. The experiment is described as follows: ELISA, cyno EpCAM, pH 7.4. The procedure: as §6, §3
The target in experiment [14] is T3, cyno EpCAM expressed on 293 cells. The experiment is described as follows: FACS on 293 cells expressing cyno EpCAM, pH 7.4. Here is the method: as §5
The target in experiment [15] is T1, recombinant human EpCAM extracellular …. The experiment is described as follows: direct binding ELISA, human EpCAM; ratio of the printed IC50 at pH 7.4 to pH 6.0.
Experiment [16] concerns the target T4, cyno EpCAM (recombinant, ELISA antigen). The experiment in a line: direct binding ELISA, cyno EpCAM, pH 6.0 (printed as IC50).
For experiment [17] the target is unchanged. The experiment in a line: direct binding ELISA, cyno EpCAM, pH 7.4 (printed as IC50).
The target in experiment [18] is T1, recombinant human EpCAM extracellular …. The experiment is described as follows: direct binding ELISA, human EpCAM, pH 6.0 (table prints IC50, the text paragraph 376 says EC50).
For experiment [19] the target is unchanged. The experiment is described as follows: ELISA on human EpCAM at pH 6.0 after heating the antibody for 1 h at 4, 37, 45, 55 or 60 C. The procedure:
The thermostability of the humanized conditionally active anti-EpCAM antibodies was evaluated by measuring their binding activities after heat treatment. The binding activities of the humanized conditionally active anti-EpCAM antibodies to human EpCAM after heat treatment for one (1) hour at different temperatures at pH 6.0 and pH 7.4 were measured by ELISA.
as §3

T3 sequence (Q1WER1 24-314): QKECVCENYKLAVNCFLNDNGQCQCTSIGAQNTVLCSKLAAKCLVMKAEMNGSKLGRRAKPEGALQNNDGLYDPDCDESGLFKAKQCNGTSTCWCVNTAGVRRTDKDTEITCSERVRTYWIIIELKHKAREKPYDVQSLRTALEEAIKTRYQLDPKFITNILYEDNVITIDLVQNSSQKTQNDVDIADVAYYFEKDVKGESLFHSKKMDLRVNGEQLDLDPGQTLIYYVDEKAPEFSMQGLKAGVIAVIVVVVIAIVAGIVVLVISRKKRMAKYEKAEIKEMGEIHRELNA

B1: BAP-105-01-03 (antibody, V domains shown)
VH: QVQLQQSGAELAKPGASVKVSCKASGYTFTSYWMHWVKQRPGQGLEWIGYIRPSTGYTEYNQKFKDKATLTADKSSSTAYMQLSSLTFEDSAVYYCGDGDNWVGFANWGQGTLVTVSA
VL: QIVLTQSPAIMSASLGEEIALTCSASSSISYMHWYQQKSGTSPKLLIYSTSNLASGVPSRFSGSGSGTFYSLTISSVEAEDAADYFCHQWSTYHTFGSGTKLEIK
As for B1, the binding result in [1] and in experiment [2] was “binds” throughout.

B2: BAP-105-01-01 (antibody, V domains shown)
VH: QVQLQQSGAELAKPGASVKVSCKASGYTFTSYWMHWVKQRPGQGLEWIGYIRPSTGYTEYNQKFKDKATLTADKSSSTAYMQLSSLTFEDSAVYYCGRGDNWVGFANWGQGTLVTVSA
VL: QIVLTQSPAIMSASLGEEIALTCSASSSISYMHWYQQKSGTSPKLLIYSTSNLASGVPSRFSGSGSGTFYSLTISSVEAEDAADYFCHQWSTYHTFGSGTKLEIK
notes: Non-conditionally active control; also called template antibody (WT)
As to B2, the EC50 in [3] is 0.263 µg/mL; in experiment [4] it was 0.00833 µg/mL; in [5], 0.092 µg/mL; in experiment [6], 0.125 µg/mL; in experiment [7], 0.625 µg/mL; in experiment [8], 0.268 µg/mL. The 50% effective concentration (EC50) is 0.00781 µg/mL in [9], 0.0112 µg/mL in [11], 0.3 µg/mL in experiment [13] and 0.863 µg/mL in [14]. The IC50 came out at 0.0423 µg/mL in experiment [10], 0.0288 µg/mL in experiment [16], 0.0416 µg/mL in experiment [17] and 0.0586 µg/mL in experiment [18]. Besides, the “ratio (pH7.4/pH6.0)” value in experiment [12] was 1.44; in experiment [15] it was 0.72.

B3: BAP-105-01-06 (antibody, V domains shown)
VH: QVQLQQSGAELAKPGASVKVSCKASGYTFTSYWMHWVKQRPGQGLEWIGYIRPSTGYTEYNQKFKDKATLTADKSSSTAYMQLSSLTFEDSAVYYCGRGDNWVGFANWGQGTLVTVSA
VL: QIVLTQSPAIMSASLGEEIALTCSASSSISYMHWYQQKSGTSPKLLIYSTSNLASGVPSRFSGSGSGTFYSLTISSVEAEDAADYFCHQWSTYETFGSGTKLEIK
notes: also called BAP-1-5-01-06
B3: the binding result in experiment [2] and in [19] was “binds” in each case.

B4: 105.4-05-04 (antibody, V domains shown)
VH: EVQLVQSGAEVKKPGATVKISCKVSGYTFTSYWMHWIRQSPSRGLEWLGYIRPSTGYTEYNQKFKDRFTISRDDSKNTAYLQMNSLKTEDTAVYYCGRGDNWVGFANWGQGTLVTVSS
VL: EIVMTQSPATLSVSPGERATLSCSASSSISYMHWYQQKPGKAPKLLIYSTSNLASGVPSRFSGSGSGTDFTLTISSLQPEDFATYYCHQWSTYETFGQGTKVEIK
As for B4, in experiment [19], the binding result is recorded as “binds”.

B5: BA-105-06-02 (antibody, V domains shown)
VH: EVQLVQSGAEVKKPGATVKISCKVSGYTFTSYWMHWIRQPPGKGLEWIGYIRPSTGYTEYNQKFKDRFTISRDNSKNTLYLQMNSLRAEDTAVYYCGRGDNWVGFANWGQGTLVTVSS
VL: EIVLTQSPDFQSVTPKEKVTITCSASSSISYMHWYQQKPGKAPKLLIYSTSSLASGVPDRFSGSGSGTDFTLKISRVEAEDVGVYYCHQWSTYETFGQGTKVEIK
notes: Humanized
For B5, the IC50 in [10] was found to be 0.262 µg/mL; in experiment [16], 0.152 µg/mL; in experiment [17] it was 0.673 µg/mL; in [18], 0.105 µg/mL. In addition, the “ratio (pH7.4/pH6.0)” value in experiment [12] was determined as 4.44; in experiment [15], 2.5.

By EC50 is commonly meant the concentration at which the effect is half-maximal. Broadly, the IC50 is the concentration that gives 50% inhibition.
